This experiment deals with T1, human FLAG-tagged PORCN (isoform B) (Homo sapiens, PORCN isoform B (Q9H237-2), strain).
T1 chain: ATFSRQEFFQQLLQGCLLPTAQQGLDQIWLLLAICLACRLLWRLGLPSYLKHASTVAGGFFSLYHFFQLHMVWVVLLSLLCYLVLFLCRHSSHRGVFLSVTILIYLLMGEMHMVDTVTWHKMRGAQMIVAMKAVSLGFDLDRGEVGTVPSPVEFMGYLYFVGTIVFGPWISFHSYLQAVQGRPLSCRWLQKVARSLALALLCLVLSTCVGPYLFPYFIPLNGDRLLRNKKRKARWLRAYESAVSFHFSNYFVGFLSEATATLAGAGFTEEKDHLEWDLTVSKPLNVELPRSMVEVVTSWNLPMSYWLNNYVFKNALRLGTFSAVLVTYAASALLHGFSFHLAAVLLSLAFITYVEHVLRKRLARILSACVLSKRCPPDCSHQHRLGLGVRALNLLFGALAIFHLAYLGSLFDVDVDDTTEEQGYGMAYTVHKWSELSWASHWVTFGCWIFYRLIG
Nature of the experiment: SEC. A general note: Size exclusion chromatography separates by hydrodynamic size, large species first.

B1: Fab^2C11 (Fab, V domains shown)
VH: EIQLQQSGAELVKPGASVKMSCKVSGYSFTGYNMNWVKQSHGKSLEWIGNINPYYVSTNYNQKFTGKATFTVDRSSSTAYMQLDSLTSEDSAVYYCARSYGSSHTFAYWGQGTLVTVSS
VL: DIHMTQSPASLSAFVGETVTITCRTSENIFSYLAWYQQKQGKSPQLLVYNAKTLTSGVPSRFSGSGSGTQFSLKINSLQPEDFGSYYCQHHYGSPYTFGGGTKLEIK
Turning to B1, the binding result is “binds”.

For the origin of these results see article PMC9404457 (Nature, 2022).
